Test results: US20210388105A1 (ELPISCIENCE SUZHOU BIOPHARMA, published 2021)
Numbering of substitutions follows the chain as printed.

T1: kw27 (Intracellular C-terminal EGFP fusion, left out of the letters)
T1 construct: not shown: C-terminal EGFP (GFPSpark) reporter of vector pCMV3-GFPSpark and any linker to it
T1 chain: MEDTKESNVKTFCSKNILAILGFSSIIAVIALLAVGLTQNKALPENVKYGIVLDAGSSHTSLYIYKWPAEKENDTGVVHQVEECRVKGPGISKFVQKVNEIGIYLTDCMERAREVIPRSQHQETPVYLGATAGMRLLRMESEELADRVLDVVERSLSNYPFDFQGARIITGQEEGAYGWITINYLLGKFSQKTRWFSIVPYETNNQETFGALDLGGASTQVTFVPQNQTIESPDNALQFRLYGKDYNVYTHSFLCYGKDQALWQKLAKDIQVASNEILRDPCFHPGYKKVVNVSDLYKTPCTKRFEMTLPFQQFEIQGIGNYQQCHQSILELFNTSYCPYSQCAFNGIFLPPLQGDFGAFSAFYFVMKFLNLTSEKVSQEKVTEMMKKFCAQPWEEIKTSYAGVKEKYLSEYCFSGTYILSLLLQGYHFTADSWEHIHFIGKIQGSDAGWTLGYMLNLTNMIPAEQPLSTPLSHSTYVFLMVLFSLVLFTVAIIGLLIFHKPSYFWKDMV

T2: KW27-20 (human CD39 mutant, C-terminal EGFP) (human, UniProt P49961 1-510)
T2 construct: expressed on HEK293F cells; not shown: C-terminal EGFP fusion (vector pCMV3-GFPSpark)
T2 chain: T1 chain with R138A, M139A, E142K

T3: KW27-2 (human CD39 mutant, C-terminal EGFP) (human, UniProt P49961 1-510)
T3 construct: expressed on HEK293F cells; not shown: C-terminal EGFP fusion (vector pCMV3-GFPSpark)
T3 chain: T1 chain with V81S, E82A, R111A, V115A

T4: KW27-6 (human CD39 mutant, C-terminal EGFP) (human, UniProt P49961 1-510)
T4 construct: expressed on HEK293F cells; not shown: C-terminal EGFP fusion (vector pCMV3-GFPSpark)
T4 chain: T1 chain with Q96A, N99A, E143A, R147E

B1: c34 (antibody, V domains shown)
VH: EIQVQQSGPELVKPGASVKVSCKASGYSFTDYNMYWVKQSHGKSLEWIGFIDPYNGYTSYNQKFKGKATLTIDKSSSTAFMHLNSLTSEDSAVYYCAIYGYDDAYYFDYWGQGTTLTVSS
VL: QIVLTQSPAIMSASPGEKVTITCSATSSVSYMHWFRQKPGTSPKLWIYSTSNLASGVPARFSGSGSGTSYSLTISRMAAEDAATYYCQQRITYPFTFGSGTKLEIT
notes: its making is not described; also called chimeric antibody c34
B2: c35 (antibody, V domains shown)
VH: EVRLQQSGAELVKPGASVKLSCTASGFNIEDTYVHWMKQRPEQGLEWIGRIDPAIDNSKYDPKFQGKATITAVSSSNTAYLQLSSLTSEDTAVYYCALYDGYNVYAMDYWGQGTSVTVSS
VL: DIVMTQAAFSNPVTLGTSASISCRSSKNLLHSNGITYLYWYLQRPGQSPQLLIYRASTLASGVPNRFSGSESGTDFTLRISRVEAEDVGVYYCAQLLELPHTFGGGTKLEIK
notes: its making is not described; also called chimeric antibody c35
B3: hu23.H5L5 (antibody, V domains shown)
VH: QVQLVQSGAEVKKPGASVKVSCKASGYNLKDTFLHWVRQAPGQGLEWMGRIDPANGNIKYDPKFQGRVTITADTSANTAYMELISLRSEDTAVYYCANSPYYYGSGYRIFDVWGQGTTVTVSS
VL: QIVLTQSPATLSLSPGERATLSCSAFSSVNYMHWYQQKPGQAPRLLIYTTSNLASGIPTRFSGSGSGTSYTLTISSLEPEDFAVYYCQQRSTYPFTFGQGTKLEIK
notes: humanized c23
B4: Antibody T895 (antibody, V domains shown)
VH: EVQLQQSGPELVKPGASVKMSCKASGYTFTDYNMHWVKQSHGRTLEWIGYIVPLNGGSTFNQKFKGRATLTVNTSSRTAYMELRSLTSEDSAAYYCARGGTRFAYWGQGTLVTVSA
VL: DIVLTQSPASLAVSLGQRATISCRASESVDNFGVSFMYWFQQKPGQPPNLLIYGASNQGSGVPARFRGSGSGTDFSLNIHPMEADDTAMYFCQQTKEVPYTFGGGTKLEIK
notes: also called 31895
B5: Antibody 9-8B (antibody, V domains shown)
VH: QIQLVQSGPELKKPGETVKISCKASGYTFTHYGMNWVKQAPGKGLKWMGWINTYTGELTYADDFKGRFAFSLETSASTAYLQINNLKNEDTATYFCARRAYYRYDYVMDYWGQGTSVTVSS
VL: DIVMTQSQKFMSTSVGDRVSVTCKASHNVGTNVAWYQQKPGQSPKALIYSASYRYSGVPGRFTGSGSGTDFTLTISNVQSEDLAEYFCHQYNNYPYTFGGGTKLEIK

Biological target: T1, kw27
Assay: FACS on transfected HEK293F cells, relative binding = AlexaFluor647 / GFP
Protocol: (§1) Briefly, the human CD39 mutants were generated by gene synthesis and then cloned into an expression vector pCMV3-GFPSpark. The vectors containing the validated mutated sequences were prepared and transfected into HEK293F cells. Three days post transfection, the cells were collected to testing EGFP for transgene expression. A range of dosages of antibodies (start from 100 nM, 3-folds dilution, 11 points) were tested on the 20 generated mutants and stained by AlexFluor647 labelled anti-hIgG by FACS. Antibody binding was descripted as relative binding which is derived from AlexFluor647 intensity divided by GFP intensity.
B1: binds. B2: binds. B3: binds. B4: binds. B5: binds.

Biological target: T2, KW27-20 (human CD39 mutant, C-terminal …)
Assay: as above
Protocol: as §1
B1: binds. B2: binds. B4: no binding. B5: binds.

Biological target: T3, KW27-2 (human CD39 mutant, C-terminal …)
Assay: as above
Protocol: as §1
B1: binds. B3: binds. B4: binds. B5: binds.

Biological target: T4, KW27-6 (human CD39 mutant, C-terminal …)
Assay: as above
Protocol: as §1
B1: binds. B2: binds. B3: no binding. B4: binds. B5: no binding.
